{"source": "paper PMC3411106", "about": "“Structural analysis of the human SYCE2–TEX12 complex provides molecular insights into synaptonemal complex assembly” (Open Biology, 2012)", "molecules": {"B1": {"name": "SYCE2_(57–165), tag cleaved (domain or fragment, human, UniProt Q6PIF2 57-165, looked up)", "chain": "GLYFSSLDSSIDILQKRAQELIENINKSRQKDHALMTNFRNSLKTKVSDLTEKLEERIYQIYNDHNKIIQEKLQEFTQKMAKISHLETELKQVCHSVETVYKDLCLQPE", "notes": "also called central conserved region of SYCE2; source: E. coli Rosetta 2 (DE3), co-expressed with TEX12 constructs, co-purified (Ni–NTA, amylose, TEV cleavage, Resource Q); not shown: MBP, N-terminal, cleaved"}, "B2": {"name": "TEX12_(49–123), tag cleaved (domain or fragment, human, UniProt Q9BXU0 49-123, looked up)", "chain": "KDEALEKDLNDVSKEINLMLSTYAKLLSERAAVDASYIDEIDELFKEANAIENFLIQKREFLRQRFTVIANTLHR", "notes": "not shown: His-tag, N-terminal, cleaved"}, "B3": {"name": "MBP-TEX12_(49–123) (domain or fragment, human, UniProt Q9BXU0 49-123, looked up)", "chain": "B2 chain", "notes": "Dimer by SEC–MALS; source: E. coli Rosetta 2 (DE3), individually expressed, purified on amylose resin; not shown: MBP, N-terminal, kept"}, "B4": {"name": "MBP-TEX12_(24–123) (domain or fragment, human, UniProt Q9BXU0 24-123, looked up)", "chain": "VPDSPQLSSLGKSDSSFSEISGLFYKDEALEKDLNDVSKEINLMLSTYAKLLSERAAVDASYIDEIDELFKEANAIENFLIQKREFLRQRFTVIANTLHR", "notes": "as for B3"}, "B5": {"name": "TEX12 (1–123), tag cleaved (natural protein, human, UniProt Q9BXU0 1-123, looked up)", "chain": "MMANHLVKPDNRNCKRPRELESPVPDSPQLSSLGKSDSSFSEISGLFYKDEALEKDLNDVSKEINLMLSTYAKLLSERAAVDASYIDEIDELFKEANAIENFLIQKREFLRQRFTVIANTLHR", "notes": "as for B2"}, "B6": {"name": "His–TEX12 (1–123) (natural protein, human, UniProt Q9BXU0 1-123, looked up)", "chain": "B5 chain", "notes": "source: E. coli Rosetta 2 (DE3), co-expressed (pRSFDuet-1), in clarified lysate; not shown: His-tag, N-terminal, kept"}, "B7": {"name": "MBP–TEX12_(1–123) (natural protein, human, UniProt Q9BXU0 1-123, looked up)", "chain": "B5 chain", "notes": "Homodimer by SEC–MALS; source: E. coli Rosetta 2 (DE3), individually expressed, purified on amylose resin; not shown: MBP, N-terminal, kept"}}, "key": {"MBP–SYCE2 (1–218) [1]": {"biological_target": "T1, MBP–SYCE2 (1–218) (human, UniProt Q6PIF2 1-218)", "T1 construct": "Tetramer by SEC–MALS; also called full-length SYCE2; source: E. coli Rosetta 2 (DE3); co-expressed (pRSFDuet-1), in clarified lysate for the pull-down; individually expressed, purified on amylose resin for SEC–MALS; not shown: MBP, N-terminal, kept", "T1 sequence (looked up)": "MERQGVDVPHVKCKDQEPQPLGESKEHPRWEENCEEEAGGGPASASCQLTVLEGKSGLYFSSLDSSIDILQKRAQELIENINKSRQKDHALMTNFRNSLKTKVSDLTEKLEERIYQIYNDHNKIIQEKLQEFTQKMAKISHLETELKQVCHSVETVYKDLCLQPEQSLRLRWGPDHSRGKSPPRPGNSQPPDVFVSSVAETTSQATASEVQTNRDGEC", "test": "SEC-MALS; 100 µl at 1–5 mg ml^−1 on Superdex 200 10/300 GL; 20 mM Tris pH 8.0, 150 mM KCl, 2 mM DTT; purified complexes or purified fusion proteins"}, "[2]": {"biological_target": "His–SYCE2 (1–218) (human) (UniProt Q6PIF2)", "test": "SEC-MALS; 100 µl at 1–5 mg ml^−1 on Superdex 200 10/300 GL; 20 mM Tris pH 8.0, 150 mM KCl, 2 mM DTT; purified complexes or purified fusion proteins"}, "[3]": {"biological_target": "the molecule itself", "test": "AUC; sedimentation velocity of co-purified, tag-cleaved complexes; SYCE2_(57–165)–TEX12 at 57 µM, SYCE2_(57–165)–TEX12_(49–123) at 289 µM; 20 mM Tris pH 8.0, 145 mM KCl, 2 mM DTT; 30 000 r.p.m., 20°C; c(S) fit"}, "[4]": {"biological_target": "B1", "test": "SDS–PAGE band densitometry of the purified complex; Coomassie-stained SDS–PAGE of the co-purified, tag-cleaved complex; densitometry with IMAGEJ", "settings": "both partners purified"}, "[5]": {"biological_target": "the molecule itself", "test": "SEC-MALS; 100 µl at 1–5 mg ml^−1 on Superdex 200 10/300 GL; 20 mM Tris pH 8.0, 150 mM KCl, 2 mM DTT; purified complexes or purified fusion proteins"}, "MBP–SYCE2_(57–88)": {"biological_target": "T2, MBP–SYCE2_(57–88) (human, UniProt Q6PIF2 57-88)", "T2 construct": "human SYCE2, residues 57–88 (α1 region); Monomer by SEC–MALS; also called α1 region of SYCE2; source: E. coli Rosetta 2 (DE3); co-expressed (pRSFDuet-1), in clarified lysate for the pull-down; individually expressed, purified on amylose resin for SEC–MALS; not shown: MBP, N-terminal, kept", "T2 chain (looked up)": "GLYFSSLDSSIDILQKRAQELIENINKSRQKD", "test": "pull-down; amylose pull-down after co-expression in bacteria of MBP-fusion SYCE2 constructs (bait) with His-tagged TEX12 or SYCE2 constructs; lysis in 20 mM Tris pH 8.0, 500 mM KCl, 2 mM DTT; 1 h at 4°C; maltose elution; Coomassie-stained SDS–PAGE", "settings": "partners not purified"}, "MBP–SYCE2 (1–218) [6]": {"biological_target": "T1, MBP–SYCE2 (1–218)", "test": "pull-down; amylose pull-down after co-expression in bacteria of MBP-fusion SYCE2 constructs (bait) with His-tagged TEX12 or SYCE2 constructs; lysis in 20 mM Tris pH 8.0, 500 mM KCl, 2 mM DTT; 1 h at 4°C; maltose elution; Coomassie-stained SDS–PAGE", "settings": "partners not purified"}}, "data": [{"molecule": "MBP–SYCE2 (1–218) (from UniProt Q6PIF2 1-218) (natural protein)", "values": [{"measurement": "stoichiometry N", "setting": "MBP–SYCE2 (1–218) [1]", "value": 4}]}, {"molecule": "His–SYCE2 (1–218) (from UniProt Q6PIF2 1-218) (natural protein)", "values": [{"measurement": "stoichiometry N", "setting": "[2]", "value": 4}]}, {"molecule": "B1", "values": [{"measurement": "binding result", "setting": "[3]", "value": "binds"}]}, {"molecule": "B2", "values": [{"measurement": "stoichiometry N", "setting": "[4]", "value": 1}]}, {"molecule": "B3", "values": [{"measurement": "stoichiometry N", "setting": "[5]", "value": 2}]}, {"molecule": "B4", "values": [{"measurement": "stoichiometry N", "setting": "[5]", "value": 2}]}, {"molecule": "B5", "values": [{"measurement": "stoichiometry N", "setting": "[4]", "value": 1}]}, {"molecule": "B6", "values": [{"measurement": "integrated intensity of the TEX12 band relative to 57–165", "setting": "MBP–SYCE2_(57–88)", "value": 96, "unit": "%"}, {"measurement": "integrated intensity of the TEX12 band relative to 57–165", "setting": "MBP–SYCE2 (1–218) [6]", "value": 62, "unit": "%"}]}, {"molecule": "B7", "values": [{"measurement": "stoichiometry N", "setting": "[5]", "value": 2}]}]}
